Results on 10 sequences are retold here after a protein production outcome set (Wang et al. 2014).

The nature of this data set: label from the status in PepcDB records.

As to “MKIRNDGPALAGWNVAWEMPDGQEITNSWNGRFVQTGAHVDVGNLDWNKDIPAGSNIEFGFNGSHTGRNRTPASLSVNGVKCTMAVAAPPPSPRPAACEATYQISDQWNTGFTANVRIRNDGDPLAGWKVVWDMPDGQRVTNSWNGRFTQSGSHVEVGHLDWNRDIATGSNIEFGFNGSHAGANRAPSSLSLNGVACALVTVAPSPTPAPTATPSPIPTPTPSPAPTASPSPAPTPTPAPTSSPSPTPAPTGPCQADYQVTAQWNDGFTANVKVRNNGTALDGWTVAWTMPSGQTVTGMWNGQYVQTGPQVAVTPADWNRQIASGASIEFGFNGSHSGSNAVPGVLTLNGAACATTTGGGTPTPTPVPVAPGAPAGLSATVADNAVVNLVWTAADAFAQGFRIERRTAAGVDWALVAETAAGVPSFGDGTVAMGNDYEYRVYAFNAVGNSPPATASASLPTLLKYGESQYQKQGCASCHGKDGKGGFTNKPLVHFTADQLATLTEIIRVRMPPSKPANCVSNCAAGTAKYIIEVLAAAASGGGGGGGNACAGSPPPGGRALRLLTRQEYQNTVNDLLGLSENLVHLLPEENRVDGFDNNVATNLVTSIRLEAFLTQAEALAAKAVQQNWNALLPCTQQDAACARRFVEAFGKRAYRRPLTPEEADAYAALFGQGSFREGVEATITHMLVSPNFLYRSELGEVQADGTYKLTPYETASALSYLFLGSLPDGELVSAADQNLLDTPDQRIAHASRLLSLPRSRNRVGHFVGQWLLGTSPYTLPEKDQAVYPRYDAAVRSAMSEELIGFFDHVAFESTQSFPELFTANYVVVDDTLADYYGLGRPGGSGFAPVTVSDGTRTGILTLGAVLSRYANSNESHPFKRGGFLYKRLLCRDLPLPANAGFIQAPQPDPNATTRQRFEFHSKSNTSCYGCHQYLDGPGFGFENYDGAGIFRASENGQAIDASGVLRGLETFTPTEELSFTDLPDLSRKIAASPTAAQCAARQYYRFATGRREASSDSCALDSFLQTYSANGHNLQTMLLGIVNAPGFTVRRADQ”, the protein production entry is recorded as “failed”.
As to “MKISAVVVTFNRKKLLLECLNALRNQTYPLDAIFIIDGPSTDGTPEALLECGYIKELPPKKGNWSWETKNVIYSPINNKPIKVYYVRLYKDVGGSGGFYEGVKRAYEEGYNWIWLMDDDAEPREDALEKLIRYMNLPGVIALAPTVIRPTGEISKPHRGILCFKKIFPMIQIPLDESKYKSNQPVQIDFVSFVGPLIKRDAIKIVGFPKKEFFIHHDDVEYSIRLRTVGKIYLIPDSVIIHKENIKKTSLIKKRFLGKTIYRIPYNKLWKTYYGTRNLTYLGRIYSKSKFKFYFKLLKRWAVSVGAIILFDDHKIKRIQFITSAYLDGLRGKFDNEKPKRILYGGKKELEHHHHHH”, the protein production entry is reported as “not failed”.
“MKISQLLSLDTIKLNLAASNKNEVIDQLVDVLWDAGKLTDKNLYKEEILKRESLSSTGIGERIAIPHAKTKAVKNASLALGIYKYGVDYDSLDGEPVNIVFMIAAPAGANDEHLETLSRLSVLLMNPDFKNGLLNAKTPEEVISLLDKFEENEESDETQASNEAENNSNKKYILAVTACPTGIAHTYMAADSLNKTAKEMDVHIKVETNGSTGVKNRLTQEDIDKADGIIVAADKQVEMARFNGKKVVIVPVVQAMKRPQELINEALSGSAPVYSHSGDSSNQSSGKTERRGFYKHLMNGVSNMLPFVVGGGILIAISFMFGIHSAEINDPTFNPIAKLLKDIGGGNAFFLMIPVLAGFIGSSIADRPGFAPAMVGGLIAANSGSGFLGGLIAGFLGGYVVVLLKKIFSKLPQSLEGIKPVLLYPLFGILITGALMYLVIVGPVTALNNNIAIWLQNMGTGNLVLLGIVLGGMMAIDMGGPINKAAFTFGIAMIASGNYYPHAAIMAGGMVPPLATALATTFFKNKFTKDERDAGTTNYIMGLTFITEGAIPFAAADPFRVIPACVIGSAIAGGLSMVFKIGLPAPHGGIFVVPVVEGNPLLYLLSILVGSIVAALIIGFLKKPVNEINK”: the protein production entry is recorded as “failed”.
For “MKITILSGGTGTPKLIQGFKEILPNEDISVIVNTGEDTYIGDIYLSPDIDTVLYTFSNLINDETWYGLKGDTFFCHEQLKNFGFDEVLRIGDKDRALKMHKTSLLKKGVPMSEIVDIERKSLSINSKIYPMSDEKIESKVLIEENNEKILLKFHDFWVSRRGNAKVLDIFYENSNYAKAADGVLKAIEESDFVIIGPSNPITSIGPILSISEIKDALKEKLVFAVSPIVGENPVSGPAGTLMHAKGYPVNAVGVYEYYKDIVDVLVLDNSDINKKKEMNCEVLYANTIMKTIDDKITLARNILDYYKSR” the value was “failed”; for “MKITMRVSVPLSPRQAASQPVPSHRCLHVWPFIRPSLLRPELTMPSGCRCLNLVCLLCILGATSQPARADDCSSHCDLAHGCCAPDGSCRCDPGWEGLHCERCVRMPGCQHGTCHQPWQCICHSGWAGKFCDKDEHICTSQSPCQNGGQCVYDGGGEYHCVCLPGFHGRGCERKAGPCEQAGFPCRNGGQCQDNQGFALNFTCRCLAGFMGAHCEVNVDDCLMRPCANGATCIDGINRFSCLCPEGFAGRFCTINLDDCASRPCQRGARCRDRVHDFDCLCPSGYGGKTCELVLPAPEPASVGTPQMPTSAVVVPATGPAPHSAGAGLLRISVKEVVRRQESGLGESSLVALVVFGSLTAALVLATVLLTLRAWRRGICPTGPCCYPAPHYAPARQDQECQVSMLPAGFPLSPDLPPEPGKTTAL”, “failed”.
For “MKKAIYLLILCIFGLFSVYFTYAENISDISNTTSKNISSSNISHNNIIYSNINYNEILYIIVKNNTAYVKDVINGTNNPYHIKSAGIILYEKIYGYNYSNLLYRNSSNSLIFYYNFSVDKINYTINITIPQIEDYVGSLGGPIRMRIPPNNVKIIIVAENKLAETNGKYILEYNKTDKKVISLIYLDNVSSICNIYYTKFFNSSEFYGYAVANVTSITENRTSYTIKNPKGTFTFDRKYNVFVSNKTAYLKEPYLYVKLYNSTIDDIIILENNKISENSTKFMSNYLLSFIGIIIGFGIIGLAIYLSKRGRK” the value was “failed”; for “MKKAKLIFKDNTPFSLDFDDFYFNFKDGLNESKFVYTHSFEWKNQENFIIAESGFGIGLNFFLTLKRFLETTPSKRPKKLFYISVEAFYIEKEQLREIYQKLEFYEEFKELLEQFLKFYPKAKEGIYRFYFEDCFLDLVFEDIAVLKELDFKADVWYLDGFSPNKNSQMFDENLIFEVARLSKKNTQICTFSSASFLQKNLKKYGFRVEKTKGFRKREMIKAYLENELEFKDKEAYFSRTFSSLKNKKVAIIGAGISSAVLAYELSLRGFEIDIFEKHLELGKGASGNESGILSSLILKPKVNLGEFSELSFIEASRFYRQILDLEFKGVVEFAHNDLMQERFDTQRENVLFKISKNQAFLEEGGVIFPKKLVKNLFEKSKACIYFNHEFQAYKFENGCFSLKFKNDVVKSDYAVLIYAMGADAKDFVFYDEMKLSKVRGQVTHLKPFLDTPFPLSSKAYICPVKDDLQVIGASYDRLNASLESKEEDDKQNIENIADFMDKNTKLEIIGSKVGFRSYSSDRFMIVGNAYDEAFYKEEYKALLWTKNKEQKPAKMSCNLYFNFAHGSRGFSTSVLAARYLCALINNEPLCLEKKYIHAIHPARFLIRKLKKGL”, “failed”.
For “MKKATMLTYLEEQLEKHLGDYEVGLDWDRKNHTIEVIVRLYAENNEQVAIDDVDGTLSEEEFIEFEDGLLFYNPQKSVVDDEEYLVTIPYEGKKGLRKAVLDGFIHYLKVVLDEGQSDLLDFLSDETAEVFELHWEPADFEAMIKKVAETEKEQWIAYPSY” the value was “not failed”.
Turning to “MKKAVFSTLVIGLLSFQAHADYVAQPQSIAAQAARYSVMSIPELTQAAKSGQAGAQFYLGAHYQHGKNIPKDDKQAFTWFKAAADQGLSPAQLNVGRMYADGVGVAKNEAMARKYFEKAASNGDNRASYNLAMMEEQKKNYQGAYQWYELSTRDGMLDNKVINMSQSKKTALAANLTQDQIRQAVDRADKWIQAQ”, the protein production result was “failed”.
Then “MKKDFASVTPAGKKTSVRWFIVFMLFLVTSINYADRATLSITGDSVQHDLGLDSVAMGYVFSAFGWAYVIGQLPGGWLLDRFGSKTIIALSIFFWSFFTLLQGAIGFFSAGTAIILLFALRFLVGLSEAPSFPGNGRVVASWFPSSERGTASAFFNSAQYFAIVIFPPLMGWLTHSFGWHSVFVVMGIAGILLAVIWLKTVYEPKKHPKVNEAELAYIEQGGGLISMDDSKSKQETESKWPYIKQLLTNRMLIGVYIAQYCITTLTYFFLTWFPVYLVQARGMSILEAGFVASLPALCGFAGGVLGGIVSDILLKKGRSLTFARKVPIIAGMLLSCSMIVCNYTDSAWLVVVIMSLAFFGKGFGALGWAVVSDTSPKECAGLSGGLFNTFGNIASITTPIIIGYIVNATGSFNGALVFVGANAIAAILSYLLLVGPIKRVVLKKQEQDPDQSLPV”, with “failed”.
